Laboratory results published in publication PMC3090473 (Methods (San Diego, Calif.), 2010).

Target: the molecule itself
Assay: AUC

Protein | binding result
Un-tagged Gal80 protein (natural protein, Saccharomyces cerevisiae, UniProt P04387 1-435, looked up) MDYNKRSSVSTVPNAAPIRVGFVGLNAAKGWAIKTHYPAILQLSSQFQITALYSPKIETSIATIQRLKLSNATAFPTLESFASSSTIDMIVIAIQVASHYEVVMPLLEFSKNNPNLKYLFVEWALACSLDQAESIYKAAAERGVQTIISLQGRKSPYILRAKELISQGYIGDINSIEIAGNGGWYGYERPVKSPKYIYEIGNGVDLVTTTFGHTIDILQYMTSSYFSRINAMVFNNIPEQELIDERGNRLGQRVPKTVPDHLLFQGTLLNGNVPVSCSFKGGKPTKKFTKNLVIDIHGTKGDLKLEGDAGFAEISNLVLYYSGTRANDFPLANGQQAPLDPGYDAGKEIMEVYHLRNYNAIVGNIHRLYQSISDFHFNTKKIPELPSQFVMQGFDFEGFPTLMDALILHRLIESVYKSNMMGSTLNVSNISHYSL | binds
Un-tagged Gal3 protein (natural protein, Saccharomyces cerevisiae, UniProt P13045 1-520, looked up) MNTNVPIFSSPVRDLPRSFEQKHLAVVDAFFQTYHVKPDFIARSPGRVNLIGEHIDYCDFSVLPLAIDVDMLCAVKILDEKNPSITLTNADPKFAQRKFDLPLDGSYMAIDPSVSEWSNYFKCGLHVAHSYLKKIAPERFNNTPLVGAQIFCQSDIPTGGGLSSAFTCAAALATIRANMGKNFDISKKDLTRITAVAEHYVGVNNGGMDQATSVYGEEDHALYVEFRPKLKATPFKFPQLKNHEISFVIANTLVKSNKFETAPTNYNLRVIEVTVAANALATRYSVALPSHKDNSNSERGNLRDFMDAYYARYENQAQPWNGDIGTGIERLLKMLQLVEESFSRKKSGFTVHEASTALNCSREEFTRDYLTTFPVRFQVLKLYQRAKHVYSESLRVLKALKMMTSATFHTDEDFFTDFGRLMNESQASCDKLYECSCIETNQICSIALANGSFGSRLTGAGWGGCTIHLVPSGANGNVEQVRKALIEKFYNVRYPDLTDEELKDAIIVSKPALGTCLYEQ | binds
